{"source": "paper PMC5461201", "key": {"[1]": {"molecular_target": "FLAG-ADAR1p110-T/S-to-D (phosphomimetic mutant) (human)", "test": "pull-down"}, "[2]": {"molecular_target": "FLAG-ADAR1p110-T/S-to-A (phosphorylation inhibitory mutant) (human)", "test": "pull-down"}}, "data": [{"substance": "Xpo5-RanGTP complex (His-Xpo5 with His-RanQ69L and GTP, preassembled with VARdm RNA) (from UniProt Q9HAV4 1-1204; P62826 1-216)", "values": [{"measurement": "binding efficiency (judged from unbound His-Xpo5 in flow-through)", "setting": "[1]", "result": 70, "unit": "%"}, {"measurement": "fold amount bound against ADAR1p110-T/S-to-A", "setting": "[1]", "result": "10 to 20", "unit": "fold"}, {"measurement": "binding efficiency (judged from unbound His-Xpo5 in flow-through)", "setting": "[2]", "result": "< 10", "unit": "%"}]}]}
